Biological target: T1, human CLEC-2 (C-type lectin-like receptor 2) (human, UniProt Q9P126 1-229)
T1 construct: whole, on cells; also called T-REx human CLEC-2 expressing 293 cells
Experiment: column 'CLEC-2 binding' of the summary Table 10

T1 sequence (Q9P126 whole entry): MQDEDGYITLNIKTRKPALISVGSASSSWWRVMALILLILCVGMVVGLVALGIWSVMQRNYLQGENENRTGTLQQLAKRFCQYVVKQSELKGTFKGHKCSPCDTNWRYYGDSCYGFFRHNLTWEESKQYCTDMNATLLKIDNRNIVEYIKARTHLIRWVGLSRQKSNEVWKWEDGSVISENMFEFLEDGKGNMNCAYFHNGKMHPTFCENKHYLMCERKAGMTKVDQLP

B1: mutant rhodocytin derived from cell No. 3 (R28A and K31A) (ligand)
alpha: GLEDCDFGWSPYDQHCYQAFNEQKTWDEAEKFCRAQENGAHLASIESNGEADFVSWLISQKDELADEDYVWIGLRAQNKEQQCSSEWSDGSSVSYENLIDLHTKKCGALEKLTGFRKWVNYYCEQMHAFVCKLLPY
beta: DCPSGWSSYEGHCYKPFNEPKNWADAEAFCALQPKHSHLVSFQSAEEADFVVKLTRPRLKANLVWMGLSNIWHGCNWQWSDGARLNYKDWQEQSECLAFRGVHTEWLNMDCSSTCSFVCKFKA
modifications: α and β subunits are disulfide-linked. BN-PAGE shows a heterotrimer; each distinct subunit is given once.
notes: also called R28A, K31A
binding result: binds
